# B1: TOR1AIP2 (parent)
# chain: YTSSQKVSPIQIDGAGRTWQDSDT
# Variants of: B1
# Assay: protein stability index of a GFP-peptide fusion (GPS, HEK-293T) (PSI 1-6); higher = more stable
# Details: c terminus: a fixed tail appended
# 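Note: lentivirally expressed fusions sorted by FACS into six bins by GFP to DsRed ratio, PSI derived from sequencing read proportions per bin multiplied by bin number.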
row,Variant,protein stability index
1,D21C,2.85
2,D21I,2.71
3,D21E,3.27
4,D21P,2.81
5,D21R,2.6
6,D21Y,2.43
7,D21M,2.36
8,D21V,2.39
9,D21T,2.62
10,D21N,3.29
11,D21A,2.73
12,D21L,2.46
13,D21G,2.62
14,D21K,3.46
15,D21F,2.33
16,D21Q,2.45
17,D21H,2.34
18,D21S,2.95
19,R17L,3.21
20,R17K,3.54
21,R17F,2.33
22,R17A,3.66
23,R17N,3.02
24,R17V,3.64

row,Variant,protein stability index
1,R17H,2.24
2,R17Y,3.02
3,R17T,3.6
4,R17M,2.18
5,R17S,3.96
6,R17C,3.66
7,R17P,4.25
8,R17Q,3.79
9,R17E,4.4
10,R17W,2.32
11,R17D,4.16
12,R17G,3.63
13,R17I,3.59
14,D13W,1.54
15,D13N,3.15
16,D13P,2.87
17,D13T,2.87
18,D13Q,3.27
19,D13Y,1.96
20,D13V,2.39
21,D13S,2.86
22,D13R,2.36
23,G14H,3
24,G14E,3.94

row,Variant,protein stability index
1,G14V,2.78
2,G14T,3.38
3,G14Y,2.78
4,G14L,2.99
5,G14W,3.16
6,G14N,3.5
7,G14I,2.5
8,G14D,3.46
9,G14M,2.77
10,G14F,2.83
11,G14S,3.51
12,G14A,3.37
13,G14P,3.28
14,G14Q,3.57
15,G14R,1.95
16,G14C,4.45
17,S22G,2.74
18,S22H,3.06
19,S22D,4.55
20,S22C,3.18
21,S22E,4.08
22,S22F,2.71
23,S22K,2.95
24,S22I,3.12

row,Variant,protein stability index
1,S22A,4.18
2,S22L,2.35
3,A15D,3.85
4,A15Q,3.35
5,A15W,1.67
6,A15R,2.56
7,A15P,2.99
8,A15S,2.95
9,A15I,3.25
10,A15E,3.52
11,A15L,2.93
12,A15Y,2.91
13,A15G,3.04
14,A15N,3.71
15,A15C,3.03
16,A15T,3.36
17,A15F,2.45
18,A15K,2.73
19,A15H,2.6
20,A15V,2.82
21,Q20H,2.71
22,Q20K,3.16
23,Q20W,2.01
24,Q20L,2.58

row,Variant,protein stability index
1,Q20I,2.42
2,Q20M,2.75
3,Q20A,3.43
4,Q20Y,2.84
5,Q20F,2.62
6,Q20D,3.79
7,Q20C,3.34
8,Q20N,4.09
9,Q20P,2.69
10,Q20G,3.08
11,Q20T,3.03
12,Q20V,3.54
13,Q20E,4.31
14,Q20R,2.62
15,Q20S,3.69
16,G16W,1.61
17,G16P,3.24
18,G16F,2.3
19,G16M,3.65
20,G16S,2.9
21,G16R,3.19
22,G16L,3.07
23,G16E,3.32
24,G16C,2.99

row,Variant,protein stability index
1,G16Q,2.97
2,G16I,2.54
3,G16A,3.07
4,G16D,4.01
5,G16V,3
6,G16N,1.93
7,G16K,3.33
8,G16T,2.7
9,G16Y,2.89
10,G16H,3.41
11,W19R,4.13
12,W19C,3.88
13,W19V,4.56
14,W19H,4.09
15,W19Y,4.08
16,W19I,3.96
17,W19P,4.67
18,W19T,4.35
19,W19F,3.92
20,W19L,4.11
21,W19Q,4.57
22,W19N,4.04
23,W19A,3.93
24,W19S,4.76

row,Variant,protein stability index
1,W19G,3.74
2,W19E,4.86
3,W19M,4.34
4,W19K,4.56
5,W19D,4.39
6,T18D,4.01
7,T18V,3.29
8,T18C,2.9
9,T18I,2.63
10,T18S,2.87
11,T18N,3.41
12,T18A,3.01
13,T18G,3.47
14,T18M,2.42
15,T18K,3.33
16,T18E,3.83
17,T18W,2.3
18,T18F,1.33
19,T18R,3.43
20,T18Q,3.8
21,T18P,3.38
22,T18L,3
23,T18Y,2.74
